Biological target: T1, 14-3-3ζ (residues 1-245, 14-3-3ζ-strep, chain of the 14-3-3ζ/ERα^(LBD_F) complex) (human, UniProt P63104 1-245)
T1 sequence: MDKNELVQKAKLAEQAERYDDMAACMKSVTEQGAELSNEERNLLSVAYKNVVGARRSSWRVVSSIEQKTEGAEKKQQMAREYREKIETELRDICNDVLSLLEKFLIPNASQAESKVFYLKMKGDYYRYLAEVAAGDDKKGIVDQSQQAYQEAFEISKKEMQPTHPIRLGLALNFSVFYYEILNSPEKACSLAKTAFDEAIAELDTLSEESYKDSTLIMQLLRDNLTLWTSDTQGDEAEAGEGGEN
Assay: mass photometry

stoichiometry N: 1 ERα(LBD_F) per 14-3-3ζ (2:2)
B1: ERα^(LBD_F) (ERα residues 302-595, S305A, F591R, P592R, phosphorylated T594) (domain or fragment)
chain: KKNALALSLTADQMVSALLDAEPPILYSEYDPTRPFSEASMMGLLTNLADRELVHMINWAKRVPGFVDLTLHDQVHLLECAWLEILMIGLVWRSMEHPGKLLFAPNLLLDRNQGKCVEGMVEIFDMLLATSSRFRMMNLQGEEFVCLKSIILLNSGVYTFLSSTLKSLEEKDHIHRVLDKITDTLIHLMAKAGLTLQQQHQRLAQLLLILSHIRHMSNKGMEHLYSMKCKNVVPLYDLLLEMLDAHRLHAPTSRGGASVEETDQSHLATAGSTSSHSLQKYYITGEAEGRRATV
modifications: phosphorylated T594 (PKA co-expression)
